Laboratory results taken from patent publication US12661396B2, “Selective targeting of the TREML1/MD2 interaction by small peptide or protein and its use for vaccine adjuvants” (Ascendo Biotechnology, Inc., priority 2020, dated 2026).

Columns and labels:
[1] = molecular target: TLR4 (Homo sapiens, UniProt O00206); experiment: Solid phase binding assay, TREML1 ECD to immobilized TLR4; conditions: absorbance at 450 nm; TREML1 ECD 2.5 ug/ml to 156 ng/ml; FIG. 2
Description: (§1) To identify potential binding partners of TREML1 ECD, we used solid phase binding assay to assess interactions between TREML1 ECD and candidate proteins. Briefly, various candidate proteins and BSA (as a negative control) were coated on a 96-well plate and TREML1 ECD at various concentrations were added to the wells. After binding and washing, an anti-TREML1 antibody conjugated with horse radish peroxidase (HRP) was added to each well. After washing, HRP substrate, TMB (3,3′,5,5′-tetramethylbenzidine), was added. After reaction, absorbance at 450 nm was measured to assess TREML1 binding.
(§2) To investigate the protein-protein interactions. Recombinant TLR4 (5 ug/ml in PBS), MD2 (5 ug/ml in PBS), CD14 (5 ug/ml in PBS), and BSA (negative control) proteins were plated separately on 96-well plates and incubated overnight at 4 degrees Celsius. The blocking buffer (2% BSA in PBS) was added to avoid the nonspecific binding for 2 hr at room temperature. A serial diluted TREML1 ECD (2.5 ug/ml to 156 ng/ml, 2-fold dilutions) solutions were added and allowed to incubate at room temperature for 2 hr. Then, anti-TREML1 antibody (1 ug/ml in PBS) was added for 1 hr. Next, a secondary antibody with HRP labeling, anti-Rat IgG-HRP, was added to the plates and incubated for 30 minutes at room temperature. […] Absorbance at OD450/540 nm was measured with a microplate reader.

[2] = molecular target: T1, CD14 (Homo sapiens, UniProt P08571); experiment: Solid phase binding assay, TREML1 ECD to immobilized CD14; conditions: absorbance at 450 nm; FIG. 2
T1 sequence (P08571 20-345): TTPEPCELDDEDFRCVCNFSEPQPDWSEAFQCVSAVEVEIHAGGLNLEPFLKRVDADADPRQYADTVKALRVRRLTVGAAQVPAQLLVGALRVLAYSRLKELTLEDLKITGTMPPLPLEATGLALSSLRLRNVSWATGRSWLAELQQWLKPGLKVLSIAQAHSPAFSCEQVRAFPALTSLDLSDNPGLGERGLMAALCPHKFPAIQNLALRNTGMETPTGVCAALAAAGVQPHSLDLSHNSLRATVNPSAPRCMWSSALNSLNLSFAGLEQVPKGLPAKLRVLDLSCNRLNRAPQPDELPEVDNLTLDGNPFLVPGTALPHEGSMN
Description: as §1, §2

[3] = tested on: Human peripheral blood mononuclear cells (PBMCs); experiment: TLR agonist-induced TNF-α secretion in human PBMCs with or without TREML1 ECD; format: cell-based; conditions: human PBMCs pretreated with hTREML1 10, 5, 1 ug/ml for 30 min
Description: Human peripheral blood samples from healthy volunteer donors were collected by venipuncture bled into ACD vacutainer tubes. Human peripheral blood mononuclear cells (PBMCs), which were separated from whole blood using Ficoll-Paque Plus (GE17-1440-03) according to the manufacturer's instructions. Human peripheral blood mononuclear cells (PBMCs) were pretreated with or without […]1 (10 ug/ml, 5 ug/ml and 1 ug/ml) and incubated for 30 min at 37° C. with 5% CO2. After treatments, cells were stimulated with TLR agonist, including R848 (InvivoGen #tlrl-r848) and ODN2395 (InvivoGen #tlrl-2395), and incubated at 37° C. with 5% CO2 for 18 hr. Supernatants of cell culture medium were collected for TNF-α measurements. Cell supernatants and plasma samples were harvested and stored at -80° C. Human TNFα concentrations were detected using TNF-α DuoSet ELISA kit (R&D #DY210) according to manufacturer's instructions. Signals were developed using 3,3',5,5'-tetramethylbenzidine and the absorbance of 450 nm was detected with a microplate reader.

[4] = tested on: THP1/XBlue/MD2/CD14 cells; experiment: TREML1 ECD binding to THP1/XBlue/MD2/CD14 cells and antibody competition (flow cytometry); format: cell-based; conditions: TREML1 ECD 10 ug/ml, 1 hour; AF647-anti-human TREML1 staining; FIG. 4
Text: (§3) In addition to the solid phase binding assays, the TREML1 ECD binding was further evaluated using THP1/XBlue/MD2/CD14 cells (InvivoGen, San Diego, USA), which express MD2 and CD14. These cells (InvivoGen, San Diego, USA) are derived from the human monocytic THP1 cell line and express an NF-κB- and AP-1-inducible secreted embryonic alkaline phosphatase (SEAP) reporter gene.
To investigate the effects of anti-TLR4 antibody (HTA125, BioLegend #312814) and anti-MD2 antibody (18H10, ThermoFisher #MA5-33351) on TREML1 ECD binding to THP1/XBlue/MD2/CD14 cells, cells were pretreated with anti-MD2 antibody, anti-TLR4 antibody, IgG control, or a combination for 15 min at 37° C. with 5% CO2. After antibodies treatments, cells were treated with TREML1 ECD (10 ug/ml) and incubated for 1 hours. Cells were washed with PBS containing 1% FBS and stained with AF647-anti-human TREML1 antibody, followed by flow cytometric analysis.
The cells were resuspended in PBS containing 1% FBS at a density of 2×10^6 cells/ml and non-specific bindings of Abs were blocked using Human Fc Block (BD Biosciences #564220) at room temperature for 10 min. AF647-anti-human TREML1 (clone 268420) (R&D #FAB2394R) antibody was used as a detection antibody of TREML1 binding to cell surface. […] Binding analysis was performed on a CytoFLEX Flow Cytometer (Beckman Coulter) and the collected data were analyzed using Kazula software.

[5] = molecular target: T2, MD2 (Homo sapiens, UniProt Q9Y6Y9); experiment: Solid phase binding assay, TREML1 ECD to immobilized MD2; conditions: absorbance at 450 nm; TREML1 ECD 2.5 ug/ml to 156 ng/ml; FIG. 2
T2 sequence (Q9Y6Y9 19-160): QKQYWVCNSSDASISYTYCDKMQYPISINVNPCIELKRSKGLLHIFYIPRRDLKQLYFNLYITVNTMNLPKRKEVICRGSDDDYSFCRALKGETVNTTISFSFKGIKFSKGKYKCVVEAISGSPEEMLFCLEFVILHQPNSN
Description: as §1, §2

[6] = tested on: NF-κB; experiment: NF-κB activation in THP1/XBlue/MD2/CD14 cells (SEAP reporter, QUANTI-Blue); format: cell-based, human; conditions: FIG. 5A
Text: as §3
(§4) To investigate the effects of anti-TLR4 antibody and anti-MD2 antibody on TREML1 ECD-triggered TLR response, THP1/XBlue/MD2/CD14 cells were pretreated with anti-TLR4 antibody, anti-MD2 antibody, or IgG control for the indicated groups and incubated for 15 minutes at 37° C., 5% CO2. After pretreatments, THP1/XBlue/MD2/CD14 cells were stimulated by TREML1 ECD (10 ug/ml) and seeded at a concentration of 1×10^6 cells/ml (200 ul per well) into wells of a 96-well plate for 18 hr at 37° C., 5% CO2. To determine the NF-κB activation, the supernatants of culture medium were collected and assessed with QUANTI-Blue™ reagent (InvivoGen) according to the manufacturer's instructions.

[7] = tested on: THP1/XBlue/MD2/CD14 cells; experiment: TNF-α secretion by THP1/XBlue/MD2/CD14 monocytes (ELISA); format: cell-based, human; conditions: FIG. 5B
Description: as §4
Cell supernatants and plasma samples were harvested and stored at −80° C. Human TNFα concentrations were detected using TNF-α DuoSet ELISA kit (R&D #DY210) according to manufacturer's instructions. Signals were developed using 3,3′,5,5′-tetramethylbenzidine and the absorbance of 450 nm was detected with a microplate reader.

Sequence of TLR4 (O00206 24-839): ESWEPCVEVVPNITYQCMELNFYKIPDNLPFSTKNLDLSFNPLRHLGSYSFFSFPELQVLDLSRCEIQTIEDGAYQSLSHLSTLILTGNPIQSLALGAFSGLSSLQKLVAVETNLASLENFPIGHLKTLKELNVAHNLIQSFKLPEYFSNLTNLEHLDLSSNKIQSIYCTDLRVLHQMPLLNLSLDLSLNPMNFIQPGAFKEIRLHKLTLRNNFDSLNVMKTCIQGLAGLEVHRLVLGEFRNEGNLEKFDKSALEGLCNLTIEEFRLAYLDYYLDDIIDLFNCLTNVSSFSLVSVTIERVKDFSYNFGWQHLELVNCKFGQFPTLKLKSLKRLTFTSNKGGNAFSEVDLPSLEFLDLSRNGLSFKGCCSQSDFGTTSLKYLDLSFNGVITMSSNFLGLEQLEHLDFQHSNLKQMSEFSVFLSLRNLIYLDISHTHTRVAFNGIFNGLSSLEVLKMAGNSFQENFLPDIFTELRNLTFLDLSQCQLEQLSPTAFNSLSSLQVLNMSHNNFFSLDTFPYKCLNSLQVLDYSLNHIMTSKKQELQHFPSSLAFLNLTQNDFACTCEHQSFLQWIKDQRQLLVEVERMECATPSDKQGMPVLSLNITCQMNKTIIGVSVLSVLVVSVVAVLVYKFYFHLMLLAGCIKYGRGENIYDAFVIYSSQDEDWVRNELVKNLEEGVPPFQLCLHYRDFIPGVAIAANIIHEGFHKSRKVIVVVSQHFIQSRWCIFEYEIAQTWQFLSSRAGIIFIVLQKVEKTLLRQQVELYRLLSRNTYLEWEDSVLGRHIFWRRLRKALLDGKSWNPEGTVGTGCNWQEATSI

B1: TREML1 ECD: human TREML1 extracellular domain, SEQ ID NO:1; recombinant, E. coli, polyhistidine tag at the N-terminus (protein)
chain: QGIVGSLPEVLQAPVGSSILVQCHYRLQDVKAQKVWCRFLPEGCQPLVSSAVDRRAPAGRRTFLTDLGGGLLQVEMVTLQEEDAGEYGCMVDGARGPQILHRVSLNILPPEEEEETHKIGSLAENAFSDPAGSANPLEPSQDEKSIP
modifications: N-terminal polyhistidine tag; homo sapiens
notes: recombinant, E. coli, polyhistidine tag at the N-terminus
[1]
  TREML1 ECD binding to immobilized TLR4: binds MD2 and TLR4 in a concentration-dependent manner
[2]
  TREML1 ECD binding to immobilized CD14: does not bind to CD14
[3]; FIG. 7A
  effect on R848 (TLR7/8)-induced TNF-α secretion: enhanced in the presence of TREML1 ECD
[3]; FIG. 7B
  effect on ODN 2395 (TLR9)-induced TNF-α secretion: enhanced in the presence of TREML1 ECD in a dose-dependent manner
[4]
  binding to THP1/XBlue/MD2/CD14 cells: can bind to the THP1/XBlue/MD2/CD14 cells
[5]
  TREML1 ECD binding to immobilized MD2: binds MD2 and TLR4 in a concentration-dependent manner
[6]
  NF-κB activation in THP1/XBlue/MD2/CD14 monocytes: induced activation of NF-κB
[7]
  TNF-α secretion by THP1/XBlue/MD2/CD14 monocytes: induces THP1/XBlue/MD2/CD14 monocyte activation
